Experiment [1] addresses T1, Upstream Binding Transcription Factor (UBF), recombinant, P17480.
T1 chain: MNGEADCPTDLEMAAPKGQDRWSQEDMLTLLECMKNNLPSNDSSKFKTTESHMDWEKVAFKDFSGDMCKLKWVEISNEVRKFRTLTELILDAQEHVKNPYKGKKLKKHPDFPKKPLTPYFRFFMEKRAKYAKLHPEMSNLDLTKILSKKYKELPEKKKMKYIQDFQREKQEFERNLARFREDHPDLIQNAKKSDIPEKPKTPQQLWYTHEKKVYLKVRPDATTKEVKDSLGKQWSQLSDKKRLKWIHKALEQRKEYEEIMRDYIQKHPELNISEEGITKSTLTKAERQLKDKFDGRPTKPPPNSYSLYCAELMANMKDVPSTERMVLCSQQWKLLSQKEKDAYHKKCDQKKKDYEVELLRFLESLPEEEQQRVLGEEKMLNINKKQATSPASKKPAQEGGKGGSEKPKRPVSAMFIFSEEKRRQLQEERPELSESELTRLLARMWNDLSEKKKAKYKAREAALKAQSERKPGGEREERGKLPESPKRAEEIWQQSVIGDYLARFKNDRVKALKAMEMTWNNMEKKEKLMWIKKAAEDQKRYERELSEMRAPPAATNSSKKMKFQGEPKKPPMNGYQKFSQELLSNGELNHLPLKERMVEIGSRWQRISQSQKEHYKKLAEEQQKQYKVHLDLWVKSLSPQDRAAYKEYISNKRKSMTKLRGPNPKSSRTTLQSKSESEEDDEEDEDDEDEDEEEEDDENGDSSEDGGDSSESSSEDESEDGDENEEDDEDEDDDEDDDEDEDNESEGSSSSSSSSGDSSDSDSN
The experiment in a line: mass photometry. The following applies: remark: other sources report otherwise.

Experiment [2] addresses T1, Upstream Binding Transcription Factor …. The experiment in a line: SDS-PAGE without sample heating, with densitometry. The following applies: remark: other sources report otherwise.

B1: Upstream Binding Transcription Factor (UBF), recombinant, P17480 1-764 (natural protein)
chain: MNGEADCPTDLEMAAPKGQDRWSQEDMLTLLECMKNNLPSNDSSKFKTTESHMDWEKVAFKDFSGDMCKLKWVEISNEVRKFRTLTELILDAQEHVKNPYKGKKLKKHPDFPKKPLTPYFRFFMEKRAKYAKLHPEMSNLDLTKILSKKYKELPEKKKMKYIQDFQREKQEFERNLARFREDHPDLIQNAKKSDIPEKPKTPQQLWYTHEKKVYLKVRPDATTKEVKDSLGKQWSQLSDKKRLKWIHKALEQRKEYEEIMRDYIQKHPELNISEEGITKSTLTKAERQLKDKFDGRPTKPPPNSYSLYCAELMANMKDVPSTERMVLCSQQWKLLSQKEKDAYHKKCDQKKKDYEVELLRFLESLPEEEQQRVLGEEKMLNINKKQATSPASKKPAQEGGKGGSEKPKRPVSAMFIFSEEKRRQLQEERPELSESELTRLLARMWNDLSEKKKAKYKAREAALKAQSERKPGGEREERGKLPESPKRAEEIWQQSVIGDYLARFKNDRVKALKAMEMTWNNMEKKEKLMWIKKAAEDQKRYERELSEMRAPPAATNSSKKMKFQGEPKKPPMNGYQKFSQELLSNGELNHLPLKERMVEIGSRWQRISQSQKEHYKKLAEEQQKQYKVHLDLWVKSLSPQDRAAYKEYISNKRKSMTKLRGPNPKSSRTTLQSKSESEEDDEEDEDDEDEDEEEEDDENGDSSEDGGDSSESSSEDESEDGDENEEDDEDEDDDEDDDEDEDNESEGSSSSSSSSGDSSDSDSN
In the case of B1, the stoichiometry N in experiment [1] and in experiment [2] was 4 throughout.

For the origin of these results see doi:10.1101/2022.11.05.515292.
